Assay results from patent US20110239311A1 (MEDIZINISCHE UNIVERSITAT INNSBRUCK, published 2011).

What was measured:
[1] = target: T1, endogenous PKCalpha from Jurkat T cell lysate (human, UniProt P17252 2-672); test: GST pull down from Jurkat T cell lysate, immunoblot
T1 construct: also called PKCα
Procedure: (§1) GST pull down assay: 1×10⁷ Jurkat T cells were lysed in 1 ml lysis buffer (25 mM MES pH 6.5, 5 mM NaF, 1 mM Na₃VO₄, 2 mM EDTA, 150 mM NaCl, 0.5% TritonX-100, 50 μg/ml aprotinin and leupeptin). Lysates were precleared for 30 min at 4° C. Thereafter incubation with purified recombinant GST-NR2F6 fusion proteins for 3 h at 4° C., 5× washing in lysis buffer, SDS-PAGE under reducing conditions on Bis/Tris-buffered gels (Novex, San Diego, Calif.) was performed. Proteins were transferred onto a polyvinyl-difluoridon (PVDF) membrane (Millipore, Bedford, Mass.) by semi-dry blotting (90 mA, 80 min, 4° C.). […] Peroxidase-conjugated antibodies (Pierce, Rockford, Ill.) served as secondary reagent (1:5,000). For antigen detection enhanced chemiluminescence was used (Super Signal, Pierce, Rockford, Ill.).

[2] = target: T2, endogenous PKCtheta from Jurkat T cell lysate (human, UniProt Q04759 1-706); test: as above
T2 construct: also called PKCθ
T2 sequence (Q04759 whole entry): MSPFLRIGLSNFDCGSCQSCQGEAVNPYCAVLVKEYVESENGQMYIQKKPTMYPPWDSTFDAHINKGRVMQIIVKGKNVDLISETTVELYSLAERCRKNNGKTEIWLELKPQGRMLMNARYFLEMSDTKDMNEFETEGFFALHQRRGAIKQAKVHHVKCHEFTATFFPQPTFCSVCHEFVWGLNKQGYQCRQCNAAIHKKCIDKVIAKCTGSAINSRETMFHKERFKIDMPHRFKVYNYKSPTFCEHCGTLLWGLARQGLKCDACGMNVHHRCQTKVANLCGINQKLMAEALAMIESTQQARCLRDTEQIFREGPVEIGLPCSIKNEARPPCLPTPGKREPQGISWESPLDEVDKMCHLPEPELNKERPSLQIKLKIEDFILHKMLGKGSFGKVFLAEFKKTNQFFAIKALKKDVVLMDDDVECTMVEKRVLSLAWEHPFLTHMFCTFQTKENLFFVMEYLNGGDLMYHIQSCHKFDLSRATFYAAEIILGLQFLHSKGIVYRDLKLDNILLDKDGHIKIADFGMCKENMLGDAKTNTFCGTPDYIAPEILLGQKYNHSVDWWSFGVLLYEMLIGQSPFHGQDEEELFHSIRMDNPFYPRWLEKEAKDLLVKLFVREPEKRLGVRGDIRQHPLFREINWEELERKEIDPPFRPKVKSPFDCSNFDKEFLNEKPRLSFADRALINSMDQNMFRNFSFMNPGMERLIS
Procedure: as §1

- binding result [1]: binds
- binding result [2]: binds
B1: GST-NR2F6 fusion protein, wild-type, full-length (purified recombinant) (other)
chain: MAMVTGGWGGPGGDTNGVDKAGGYPRAAEDDSASPPGAASDAEPGDEERPGLQVDCVVCGDKSSGKHYGVFTCEGCKSFFKRSIRRNLSYTCRSNRDCQIDQHHRNQCQYCRLKKCFRVGMRKEAVQRGRIPHSLPGAVAASSGSPPGSALAAVASGGDLFPGQPVSELIAQLLRAEPYPAAAGRFGAGGGAAGAVLGIDNVCELAARLLFSTVEWARHAPFFPELPVADQVALLRLSWSELFVLNAAQAALPLHTAPLLAAAGLHAAPMAAERAVAFMDQVRAFQEQVDKLGRLQVDSAEYGCLKAIALFTPDACGLSDPAHVESLQEKAQVALTEYVRAQYPSQPQRFGRLLLRLPALRAVPASLISQLFFMRLVGKTPIETLIRDMLLSGSTFNWPYGSGQ
notes: GST is placed at the N-terminus from the name 'GST-NR2F6' only; also called recombinant NR2F6; not shown: glutathione S-transferase (GST) fusion tag
